Measurements published in IntAct's records for PubMed 15582318.

B1: Telethonin (Homo sapiens), O15273 (parent)
chain: MATSELSCEVSEENCERREAFWAEWKDLTLSTRPEEGCSLHEEDTQRHETYHQQGQCQVLVQRSPWLMMRMGILGRGLQEYQLPYQRVLPLPIFTPAKMGATKEEREDTPIQLQELLALETALGGQCVDRQEVAEITKQLPPVVPVSKPGALRRSLSRSMSQEAQRG
partner: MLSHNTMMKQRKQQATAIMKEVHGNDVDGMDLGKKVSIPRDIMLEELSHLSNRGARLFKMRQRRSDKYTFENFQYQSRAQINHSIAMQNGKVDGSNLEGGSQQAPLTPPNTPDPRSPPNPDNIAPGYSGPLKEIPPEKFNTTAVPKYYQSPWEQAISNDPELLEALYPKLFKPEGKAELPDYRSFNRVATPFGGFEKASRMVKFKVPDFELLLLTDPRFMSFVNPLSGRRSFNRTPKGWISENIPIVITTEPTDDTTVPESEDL
B2: Telethonin (Homo sapiens), O15273 (parent)
chain: B1 chain

Variants of: B1
Conditions: with myoz2_human MYOZ2, Q9NPC6

| Variant | effect of a mutation on the interaction |
| --- | --- |
| T137I | increasing interaction strength |
| R87Q | decreasing interaction strength |
| R153H | increasing interaction strength |
| E132Q | decreasing interaction strength |

Variants of: B2
Conditions: with csrp3_human CSRP3, P50461
Chain of csrp3_human CSRP3, P50461 (P50461 whole entry): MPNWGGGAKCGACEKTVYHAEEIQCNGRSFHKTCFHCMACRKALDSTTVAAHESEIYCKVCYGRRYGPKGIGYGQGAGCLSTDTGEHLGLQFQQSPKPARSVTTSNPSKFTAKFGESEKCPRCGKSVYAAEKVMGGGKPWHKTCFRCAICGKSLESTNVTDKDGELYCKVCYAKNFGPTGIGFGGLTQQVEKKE

| Variant | effect of a mutation on the interaction |
| --- | --- |
| R87Q | decreasing interaction strength |
| E132Q | decreasing interaction strength |

Variants of: B2
Conditions: with titin_human TTN

| Variant | effect of a mutation on the interaction |
| --- | --- |
| R87Q | decreasing interaction strength |
| R153H | increasing interaction strength |
| T137I | increasing interaction strength |
| E132Q | decreasing interaction strength |
